{
  "source": "paper PMC8303780",
  "about": "“Mutational Analysis of Redβ Single Strand Annealing Protein: Roles of the 14 Lysine Residues in DNA Binding and Recombination In Vivo”",
  "test_in_all_cases": "EMSA; strands added sequentially; Anisotropy: 50 mM Tris-HCl pH 7.5, 1 mM DTT, 0.1 mg/mL BSA, 10 nM FAM48, 23 °C (Kd per monomer); gel assay: 10 µM Redβ, 50 µM nt of each oligo, PBS, 37 °C, 1% agarose at 22 °C",
  "conditions_in_all_cases": "protein: recombinant; tags: 6xHis removed by thrombin; residual N-terminal GSH; label: 5'-Cy3 and 5'-Cy5; complementary 50-mers; annealed by protein",
  "key": {"Redβ K36A": {"target": "T1, Redβ K36A (bacteriophage λ, UniProt P03698 1-261, K36A)", "T1 sequence": "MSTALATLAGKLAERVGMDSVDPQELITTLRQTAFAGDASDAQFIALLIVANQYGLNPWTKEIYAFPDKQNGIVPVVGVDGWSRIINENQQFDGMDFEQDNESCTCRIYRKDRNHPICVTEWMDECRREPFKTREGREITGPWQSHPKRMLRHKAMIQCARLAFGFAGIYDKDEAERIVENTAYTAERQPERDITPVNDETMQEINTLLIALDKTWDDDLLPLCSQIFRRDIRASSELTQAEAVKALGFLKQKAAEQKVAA"}, "Redβ K214A": {"target": "T2, Redβ K214A (bacteriophage λ, UniProt P03698 1-261, K214A)", "T2 sequence": "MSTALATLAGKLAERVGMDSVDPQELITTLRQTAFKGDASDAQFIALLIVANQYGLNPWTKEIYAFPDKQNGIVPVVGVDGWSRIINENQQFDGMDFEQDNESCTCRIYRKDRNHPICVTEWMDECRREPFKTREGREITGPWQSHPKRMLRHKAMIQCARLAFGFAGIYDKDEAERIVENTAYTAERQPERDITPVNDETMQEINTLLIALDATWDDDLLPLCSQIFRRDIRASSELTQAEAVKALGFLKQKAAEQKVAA"}, "Redβ K61A": {"target": "T3, Redβ K61A (bacteriophage λ, UniProt P03698 1-261, K61A)", "T3 sequence": "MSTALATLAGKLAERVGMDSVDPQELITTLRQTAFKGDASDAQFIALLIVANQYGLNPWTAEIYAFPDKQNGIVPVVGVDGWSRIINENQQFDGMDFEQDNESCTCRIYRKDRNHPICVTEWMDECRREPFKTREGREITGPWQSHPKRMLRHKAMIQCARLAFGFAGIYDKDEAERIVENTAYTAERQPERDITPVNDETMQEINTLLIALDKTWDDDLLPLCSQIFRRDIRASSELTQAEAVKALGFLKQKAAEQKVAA"}, "Redβ K69A": {"target": "T4, Redβ K69A (bacteriophage λ, UniProt P03698 1-261, K69A)", "T4 sequence": "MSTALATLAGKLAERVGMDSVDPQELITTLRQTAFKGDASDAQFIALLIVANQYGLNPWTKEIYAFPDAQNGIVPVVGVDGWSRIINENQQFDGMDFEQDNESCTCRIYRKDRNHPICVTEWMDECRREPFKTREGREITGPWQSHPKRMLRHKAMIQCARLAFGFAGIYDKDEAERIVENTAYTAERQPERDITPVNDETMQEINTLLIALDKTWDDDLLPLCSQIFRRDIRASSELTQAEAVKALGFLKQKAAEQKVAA"}, "Redβ WT": {"target": "T5, Redβ WT (bacteriophage λ, UniProt P03698 1-261)", "T5 sequence": "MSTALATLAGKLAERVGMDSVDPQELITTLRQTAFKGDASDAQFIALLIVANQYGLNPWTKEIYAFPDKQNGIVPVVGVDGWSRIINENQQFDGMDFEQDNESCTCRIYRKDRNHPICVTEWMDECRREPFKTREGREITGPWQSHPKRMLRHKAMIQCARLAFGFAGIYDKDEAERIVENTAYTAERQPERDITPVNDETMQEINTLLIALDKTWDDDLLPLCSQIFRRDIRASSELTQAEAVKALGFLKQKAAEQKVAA"}, "Redβ K253A": {"target": "T6, Redβ K253A (bacteriophage λ, UniProt P03698 1-261, K253A)", "T6 sequence": "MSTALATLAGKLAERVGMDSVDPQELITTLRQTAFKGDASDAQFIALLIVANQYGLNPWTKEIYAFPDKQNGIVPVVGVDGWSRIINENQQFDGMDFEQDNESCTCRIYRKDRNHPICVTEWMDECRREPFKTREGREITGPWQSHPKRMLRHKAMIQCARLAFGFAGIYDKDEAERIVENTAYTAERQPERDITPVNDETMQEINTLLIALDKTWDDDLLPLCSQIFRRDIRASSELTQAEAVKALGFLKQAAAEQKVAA"}},
  "data": [
    {"binder": "annealed duplex of Cy3 and Cy5 50-mers, strands added sequentially (dsDNA) DNA 1: GCGGATGGCTTAGAGCAGAATCGCCCTGCATAGCTCGATTTTTGCGGATG DNA 2: CCATCCGCAAAAATCGAGCTATGCAGGGCGATTCTGCTCTAAGCCATCCG", "values": [
      {"measurement": "binding result", "setting": "Redβ K36A", "value": "binds"},
      {"measurement": "binding result", "setting": "Redβ K214A", "value": "binds"},
      {"measurement": "binding result", "setting": "Redβ K61A", "value": "no binding"},
      {"measurement": "binding result", "setting": "Redβ K69A", "value": "binds"},
      {"measurement": "binding result", "setting": "Redβ WT", "value": "binds"},
      {"measurement": "binding result", "setting": "Redβ K253A", "value": "binds"}
    ]}
  ]
}
